{"source": "patent US20170016892A1", "about": "“LOCALIZED SURFACE PLASMON RESONANCE SENSING OF HUMAN PERFORMANCE BIOMARKERS USING SHORT PEPTIDE RECOGNITION ELEMENTS ON OPTICALLY ACTIVE METAL NANOSTRUCTURES” (Government of the United States as Represented by the …, priority 2015, published 2017)", "molecules": {"B1": {"name": "Human troponin I binding peptide with a cysteine residue introduced at the C-terminus (Seq. ID No. 2), conjugated to gold nanorods (AuNR) (peptide)", "peptide": "FYSHSFHENWPSC(AuNR)", "notes": "ID No. 1 is the parent phage-display peptide; ID No. 2 is the same peptide with an added C-terminal Cys, and it is the form on the AuNRs in the assays; also called peptide-AuNR"}}, "key": {"cTnI [1]": {"biological_target": "T1, cTnI (Homo sapiens, UniProt P19429)", "T1 sequence (P19429 whole entry)": "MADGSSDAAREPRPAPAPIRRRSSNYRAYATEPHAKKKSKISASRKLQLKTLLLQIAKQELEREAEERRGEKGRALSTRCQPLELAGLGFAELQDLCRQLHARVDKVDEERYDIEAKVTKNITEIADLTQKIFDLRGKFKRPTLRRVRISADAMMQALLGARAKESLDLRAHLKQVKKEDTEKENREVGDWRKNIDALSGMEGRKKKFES", "experiment": "binding affinity of phage-display-identified peptide to cTnI", "conditions": "peptide identified from a phage display peptide library", "excerpt": "Human troponin I binding peptide (Seq. ID No. 1), identified from a phage display peptide library, with nanomolar (nM) binding affinity to cTnI. Conjugation of the peptide to AuNR was achieved by introducing a cysteine resident at the C-terminus of the peptide (Seq. ID No. 2), to facilitate binding via an Au—S linkage."}, "cTnI [2]": {"biological_target": "T1, cTnI", "experiment": "LSPR shift of BPDs on exposure to troponin in buffer", "assay_type": "binding", "protocol": "To probe the sensing capability of the BPDs, each BPD was exposed to troponin 1 (3.53 μg/mL in 0.1 M TBS, pH 8.0). […] The higher sensitivity of peptide-AuNR as compared to the sensitivity of the antibody-AuNR was believed to be due to differences in the thickness of the peptide and antibody adsorbate layer.\nTo probe the limit of detection in both the peptide- and antibody-AuNR BPDs, each BPD was exposed to varying concentrations of cTnI."}, "cTnI [3]": {"biological_target": "T1, cTnI", "experiment": "detection of troponin in human plasma with peptide-based BPDs (LSPR shift)", "assay_type": "binding", "protocol": "(§1) Peptide-based BPDs prepared in accordance with embodiments of the present invention were used in detection of troponin in complex physiological fluids, including, for example, human plasma and sweat. To reduce nonspecific binding, the BPDs were first exposed to 1% HAS to block non-specific sites. […] The limit of detection of cTnI in human plasma was 353 pg/mL, which was within physiological relevant concentration range of troponin in human plasma (0.010 ng/mL to 10 ng/mL). […] Moreover, detection of troponin in artificial eccrine sweat at physiologically-relevant concentration was also accomplished (see, FIG. 16B)."}, "troponin": {"biological_target": "troponin (Homo sapiens, UniProt P19429)", "sequence (P19429 whole entry)": "as above", "experiment": "detection of troponin in artificial eccrine sweat with peptide-based BPDs (LSPR shift)", "assay_type": "binding", "protocol": "as §1"}, "[4]": {"experiment": "thermal and shelf-life stability of BPDs by measured LSPR shift", "assay_type": "physicochemical", "conditions": "incubated at 4° C. and at 60° C., each for 48 hrs", "protocol": "To compare stability of both the peptide- and antibody-AuNR BPDs, each BPD type was incubated at 4° C. and at 60° C., each for 48 hrs. […] This reduction is believed to be due to antibody denaturation and lose molecular recognition at elevated temperatures."}, "[5]": {"biological_target": "human serum albumin (HSA) (Homo sapiens, UniProt P02768)", "experiment": "selectivity of BPDs with human serum albumin as interfering protein (LSPR shift)", "assay_type": "binding", "conditions": "high concentrations of HSA", "excerpt": "To compare selectivity of both the peptide- and antibody-AuNR BPDs towards cTnI, human serum albumin (“HSA”) was used as an interfering protein."}, "cardiac troponin I": {"biological_target": "T2, cardiac troponin I (human, UniProt P19429 2-210, limits assumed)", "T2 construct": "It was used in 0.1 M TBS pH 8.0, and spiked in human plasma and artificial eccrine sweat; also called cTnI; troponin 1", "T2 sequence (P19429 2-210 limits assumed)": "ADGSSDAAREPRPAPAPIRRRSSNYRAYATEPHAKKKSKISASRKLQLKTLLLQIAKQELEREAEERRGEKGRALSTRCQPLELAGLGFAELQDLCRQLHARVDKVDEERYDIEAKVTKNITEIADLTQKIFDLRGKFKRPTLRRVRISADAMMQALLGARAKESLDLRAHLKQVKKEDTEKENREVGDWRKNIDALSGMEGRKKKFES", "experiment": "LSPR shift after troponin binding, peptide-AuNR against anti-cTnI-AuNR as reference"}}, "note": "Where no end group is shown, it is not given here.", "data": [{"molecule": "Human troponin I binding peptide: Human troponin I binding peptide (Seq. ID No. 1), identified from a phage display peptide library (FYSHSFHENWPS)", "values": [{"measurement": "binding affinity to cTnI", "setting": "cTnI [1]", "result": "nanomolar"}]}, {"molecule": "peptide-AuNR: Troponin I binding peptide with C-terminal cysteine (Seq. ID No. 2) conjugated to gold nanorods via Au—S linkage, adsorbed on filter paper (FYSHSFHENWPSC; not fully specified (residue 13); also: conjugated to gold nanorods via Au–S bond of C-terminal Cys)", "values": [{"measurement": "LSPR red shift on exposure to troponin", "setting": "cTnI [2]; troponin 1 3.53 μg/mL in 0.1 M TBS, pH 8.0", "result": 12.3, "unit": "nm"}, {"measurement": "limit of detection of cTnI", "setting": "cTnI [2]; varying concentrations of cTnI", "result": "about 35.3 pg/mL"}, {"measurement": "LSPR shift with increased troponin concentration", "setting": "cTnI [3]", "result": "monotonic increase"}, {"measurement": "limit of detection of cTnI in human plasma", "setting": "cTnI [3]; BPDs first blocked with 1% HAS", "result": 353, "unit": "pg/mL"}, {"measurement": "LSPR shift with increased troponin concentration", "setting": "troponin", "result": "monotonic increase"}, {"measurement": "detection of troponin at physiologically-relevant concentration", "setting": "troponin", "result": "accomplished"}, {"measurement": "stability (measured LSPR shift after incubation)", "setting": "[4]", "result": "remarkable thermal and temporal stability"}, {"measurement": "LSPR shift upon exposure to HSA", "setting": "[5]", "result": "small LSPR shifts"}]}, {"molecule": "B1", "values": [{"measurement": "LSPR shift relative to antibodies as recognition elements", "setting": "cardiac troponin I", "result": "~100", "unit": "% higher"}]}]}
